± gives the uncertainty stated by the source.

The nature of this series: self-splicing fitness, log relative to wild type (ln ratio); higher = more splicing; Tetrahymena group I intron in knt gene, E. coli kanamycin selection, DiMSum; sequences stand for … in CUCUCU…GGAGGGAAAAGUUAUCAGGCAUGCACCUGGUAGCUAGUCUUUAAACCAAUAGAUUGCAUCGGUUUAAAAGGCAAGACCGUCAAAUUGCGGGAAAGGGGUCAACAGCCGUUCAGUACCAAGUCUCAGGGGAAACUUUGAGAUGGCCUUGCAAAGGGUAUGGUAAUAAGCUGACGGACAUGGUCCUAACCACGCAGCCAAGUCCUAAGUCAACAGAUCUUCUGUUGAUAUGGAUGCAGUUCACAGACUAAAUGUCGGUCGGGGAAGAUGUAUUCUUCUCAUAAGAUAUAGUCGGACCUCUCCUUAAUGGGAGCUAGCGGAUGAAGUGAUGCAACACUGGAGCCGCUGGGAACUAAUUUGUAUGCGAAAGUAUAUUGAUUAGUUUUGGAGUACUCGUGGUCG
Summed up:
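Six replicate transformations of E. coli BL21(DE3) with a pET-22b(+) library were grown overnight at 37°C or 30°C. The library randomised all eight P1ex-region intron nucleotides, the intron lying in the knt kanamycin-resistance gene, and plates were LB agar with or without 25 μg/mL kanamycin plus 100 μg/mL carbenicillin, 50 μM IPTG and 0.2% rhamnose. Pooled colonies were amplicon-sequenced on an Illumina HiSeq 2500, and fitness is the DiMSum error-weighted combination of wild-type-normalised replicate fold changes, kanamycin versus none.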

For the sequence GGAAAGCAAUAUUACGAUUA, the “self-splicing fitness (ln)” value (30 °C) was -0.527 ± 0.16 and the “self-splicing fitness (ln)” value (37 °C) is 0.788 ± 0.16.

Consider UCGAAGCAAUAUUACGCCAU, for which the “self-splicing fitness (ln)” value reads like this: (30 °C) -3.42 ± 0.32; (37 °C) -2.52 ± 0.48.

For the sequence UCAAAGCAAUAUUACGUCGG, the “self-splicing fitness (ln)” value (30 °C) is -0.93 ± 0.056 and the “self-splicing fitness (ln)” value (37 °C) is -0.055 ± 0.079.

With UUUGAGCAAUAUUACGUAGA, the “self-splicing fitness (ln)” value is -1.7 ± 0.22 (30 °C) and -0.802 ± 0.24 (37 °C).

As to AUAGAGCAAUAUUACGGCCG, the “self-splicing fitness (ln)” value is, setting by setting: (30 °C) -0.599 ± 0.24; (37 °C) -1.36 ± 0.45.

On to UUACAGCAAUAUUACGUCCA, for which the “self-splicing fitness (ln)” value (30 °C) is -0.325 ± 0.096 and the “self-splicing fitness (ln)” value (37 °C) was -0.181 ± 0.11.

Regarding ACUUAGCAAUAUUACGUUUC, the “self-splicing fitness (ln)” value was -4.28 ± 0.31 (30 °C) and -2.78 ± 0.27 (37 °C).

For the sequence AUCGAGCAAUAUUACGCUCG, the “self-splicing fitness (ln)” value (30 °C) was -2.72 ± 0.35.

Regarding CCCAAGCAAUAUUACGGCGC, the “self-splicing fitness (ln)” value (37 °C) was -2.73 ± 0.25.

In the case of UCACAGCAAUAUUACGCACU, the “self-splicing fitness (ln)” value (30 °C) was -2.56 ± 0.17 and the “self-splicing fitness (ln)” value (37 °C) was -2.8 ± 0.24.

As to CGCAAGCAAUAUUACGACGU, the “self-splicing fitness (ln)” value (30 °C) was -1.73 ± 0.068 and the “self-splicing fitness (ln)” value (37 °C) is -0.28 ± 0.069.

Consider GGCGAGCAAUAUUACGUUUC, for which the “self-splicing fitness (ln)” value by setting is: (30 °C) -2.07 ± 0.23; (37 °C) -1.99 ± 0.26.

Turning to CCUCAGCAAUAUUACGAGUG, the “self-splicing fitness (ln)” value was -2.34 ± 0.14 (30 °C) and -0.953 ± 0.14 (37 °C).

For CUCCAGCAAUAUUACGUUUG, the “self-splicing fitness (ln)” value was -3.57 ± 0.12 (30 °C) and -2.1 ± 0.11 (37 °C).

CGUCAGCAAUAUUACGACAC: the “self-splicing fitness (ln)” value by setting is: (30 °C) -1 ± 0.14; (37 °C) 0.484 ± 0.13.

For the sequence UUCCAGCAAUAUUACGCCAC, the “self-splicing fitness (ln)” value (37 °C) is -1.86 ± 0.34.

As to AGCUAGCAAUAUUACGCGGA, the “self-splicing fitness (ln)” value reads like this: (30 °C) -2.29 ± 0.14; (37 °C) -2.71 ± 0.18.

Turning to AAUCAGCAAUAUUACGCCAC, the “self-splicing fitness (ln)” value by setting is: (30 °C) -3.91 ± 0.21; (37 °C) -3.78 ± 0.39.

Consider ACAAAGCAAUAUUACGCGCU, for which the “self-splicing fitness (ln)” value was -0.245 ± 0.053 (30 °C) and 0.00495 ± 0.066 (37 °C).

In the case of UGUGAGCAAUAUUACGACGU, the “self-splicing fitness (ln)” value (30 °C) was -3.72 ± 0.18 and the “self-splicing fitness (ln)” value (37 °C) was -2.29 ± 0.16.

Turning to UUCUAGCAAUAUUACGGCUU, the “self-splicing fitness (ln)” value is, setting by setting: (30 °C) -3.3 ± 0.39; (37 °C) -2.22 ± 0.28.

Consider UUCAAGCAAUAUUACGGAAA, for which the “self-splicing fitness (ln)” value runs as follows: (30 °C) -1.83 ± 0.11; (37 °C) -1.12 ± 0.1.

For GACAAGCAAUAUUACGAAGA, the “self-splicing fitness (ln)” value (30 °C) is -2.94 ± 0.17 and the “self-splicing fitness (ln)” value (37 °C) was -1.19 ± 0.13.

UAAUAGCAAUAUUACGCAAG: the “self-splicing fitness (ln)” value is -1.92 ± 0.29 (30 °C) and -1.04 ± 0.25 (37 °C).

Regarding UAAAAGCAAUAUUACGCCGA, the “self-splicing fitness (ln)” value reads like this: (30 °C) -1.16 ± 0.12; (37 °C) -0.318 ± 0.14.

As to GAGCAGCAAUAUUACGUGGC, the “self-splicing fitness (ln)” value is -3.71 ± 0.27 (30 °C) and -1.63 ± 0.14 (37 °C).

Take GCAUAGCAAUAUUACGACCG: the “self-splicing fitness (ln)” value runs as follows: (30 °C) -0.896 ± 0.17; (37 °C) 0.516 ± 0.14.

As to CGCUAGCAAUAUUACGUUUU, the “self-splicing fitness (ln)” value reads like this: (30 °C) -3.8 ± 0.16; (37 °C) -1.68 ± 0.13.

Turning to CGAGAGCAAUAUUACGUGAC, the “self-splicing fitness (ln)” value by setting is: (30 °C) -2.77 ± 0.2; (37 °C) -2.01 ± 0.29.

For the sequence CGUCAGCAAUAUUACGAAGA, the “self-splicing fitness (ln)” value runs as follows: (30 °C) -2.26 ± 0.19; (37 °C) -2.09 ± 0.23.

As for UGAUAGCAAUAUUACGCCAA, the “self-splicing fitness (ln)” value is, setting by setting: (30 °C) -3.37 ± 0.27; (37 °C) -1.85 ± 0.15.

Consider UCUUAGCAAUAUUACGCCUC, for which the “self-splicing fitness (ln)” value (37 °C) was -2.31 ± 0.45.

As for AGCUAGCAAUAUUACGCUUA, the “self-splicing fitness (ln)” value runs as follows: (30 °C) -1.8 ± 0.19; (37 °C) -2.01 ± 0.19.

With UCUUAGCAAUAUUACGAGUA, the “self-splicing fitness (ln)” value (30 °C) is -0.787 ± 0.26 and the “self-splicing fitness (ln)” value (37 °C) was -1.19 ± 0.27.

Consider CAAAAGCAAUAUUACGGAAC, for which the “self-splicing fitness (ln)” value runs as follows: (30 °C) -2.55 ± 0.15; (37 °C) -2.87 ± 0.27.

CAUAAGCAAUAUUACGUGUU: the “self-splicing fitness (ln)” value runs as follows: (30 °C) -3.05 ± 0.13; (37 °C) -2.62 ± 0.13.

As for GUUUAGCAAUAUUACGAGCU, the “self-splicing fitness (ln)” value (37 °C) is -0.552 ± 0.27.

In the case of CCGGAGCAAUAUUACGUCAG, the “self-splicing fitness (ln)” value was -1.42 ± 0.12 (30 °C) and -1.17 ± 0.15 (37 °C).

As for CAGUAGCAAUAUUACGACUG, the “self-splicing fitness (ln)” value is, setting by setting: (30 °C) -4.55 ± 0.26; (37 °C) -2.84 ± 0.23.
